Results from patent CN115073593A (SHANGHAI JUNSHI BIOSCIENCES CO LTD; JUNMENG BIOSCIENCES CO …, dated 2022).

Assays:
重组SARS-CoV-2-RBD-His [1] = biological target: T1, 重组SARS-CoV-2-RBD-His (SARS-CoV-2, UniProt P0DTC2 319-541); experiment: BLI Octet Red 96e, antibody on Protein A probe
T1 construct: domain: RBD

重组SARS-CoV-2-RBD-His [2] = biological target: T1, 重组SARS-CoV-2-RBD-His; experiment: BLI Octet Red 96e, antibody on Protein A probe, RBD-his in solution
生物素化的SARS-CoV-2 RBD = 生物素化的SARS-CoV-2 RBD (SARS-CoV-2, UniProt P0DTC2 319-541); experiment: ELISA screen, Fab culture supernatant on streptavidin-captured biotinylated RBD

Row | Binder | binding result (生物素化的SARS-CoV-2 RBD) | further results
1 | JS016-38 (antibody, V domains shown) VH: EVQLVESGGGLVQPGGSLRLSCAASGFRVRRNYMSWVRQAPGKGLEWVSVIYPGGSTFYADSVKGRFTISRDNSMNTLFLQMNSLRAEDTAVYYCARVLPMYGDYLDYWGQGTLVTVSS VL: DIVMTQSPSSLSASVGDRVTITCRASQNIERYLNWYQQKPGKAPKLLIYAASSLQSGVPSRFSGSGSGTDFTLTISSLQPEDFATYYCQQSASSTPEYTFGQGTKLEIKR | – | fold improvement of the affinity constant over CB6 (重组SARS-CoV-2-RBD-His [1]): ~100 倍; fold slower dissociation rate than CB6 (重组SARS-CoV-2-RBD-His [1]): ~100 倍; Kd (重组SARS-CoV-2-RBD-His [2]): < 0.0741 nM; koff (重组SARS-CoV-2-RBD-His [2]): < 1e-05 s⁻¹; kon (重组SARS-CoV-2-RBD-His [2]): 135000 M⁻¹ s⁻¹
2 | CB6-42 (轻链突变库克隆) (Fab, V domains shown, also called CB6-42-VL; CB6-42-LC) VH: EVQLVESGGGLVQPGGSLRLSCAASGFTVSSNYMSWVRQAPGKGLEWVSVIYSGGSTFYADSVKGRFTISRDNSMNTLFLQMNSLRAEDTAVYYCARVLPMYGDYLDYWGQGTLVTVSS VL: DIVMTQSPSSLSASVGDRVTITCRASQSIIQYLNWYQQKPGKAPKLLIYAASSLQSGVPSRFSGSGSGTDFTLTISSLQPEDFATYYCQQSASARPEYTFGQGTKLEIK | binds | –
3 | CB6-39 (轻链突变库克隆) (Fab, V domains shown, also called CB6-39-VL; CB6-39-LC) VH: EVQLVESGGGLVQPGGSLRLSCAASGFTVSSNYMSWVRQAPGKGLEWVSVIYSGGSTFYADSVKGRFTISRDNSMNTLFLQMNSLRAEDTAVYYCARVLPMYGDYLDYWGQGTLVTVSS VL: DIVMTQSPSSLSASVGDRVTITCRASQPINQYLNWYQQKPGKAPKLLIYAASSLQSGVPSRFSGSGSGTDFTLTISSLQPEDFATYYCQQSKSSLPEYTFGQGTKLEIK | binds | –
4 | CB6-38 (轻链突变库克隆) (Fab, V domains shown, also called CB6-38-VL; CB6-38-LC) VH: EVQLVESGGGLVQPGGSLRLSCAASGFTVSSNYMSWVRQAPGKGLEWVSVIYSGGSTFYADSVKGRFTISRDNSMNTLFLQMNSLRAEDTAVYYCARVLPMYGDYLDYWGQGTLVTVSS VL: DIVMTQSPSSLSASVGDRVTITCRASQNIERYLNWYQQKPGKAPKLLIYAASSLQSGVPSRFSGSGSGTDFTLTISSLQPEDFATYYCQQSASSTPEYTFGQGTKLEIK | binds | –
5 | CB6-43 (轻链突变库克隆) (Fab, V domains shown, also called CB6-43-VL; CB6-43-LC) VH: EVQLVESGGGLVQPGGSLRLSCAASGFTVSSNYMSWVRQAPGKGLEWVSVIYSGGSTFYADSVKGRFTISRDNSMNTLFLQMNSLRAEDTAVYYCARVLPMYGDYLDYWGQGTLVTVSS VL: DIVMTQSPSSLSASVGDRVTITCRASQNIHTYLNWYQQKPGKAPKLLIYAASSLQSGVPSRFSGSGSGTDFTLTISSLQPEDFATYYCQQSGSSIPEYTFGQGTKLEIK | binds | –
6 | CB6-41 (轻链突变库克隆) (Fab, V domains shown, also called CB6-41-VL; CB6-41-LC) VH: EVQLVESGGGLVQPGGSLRLSCAASGFTVSSNYMSWVRQAPGKGLEWVSVIYSGGSTFYADSVKGRFTISRDNSMNTLFLQMNSLRAEDTAVYYCARVLPMYGDYLDYWGQGTLVTVSS VL: DIVMTQSPSSLSASVGDRVTITCRASQAIAYYLNWYQQKPGKAPKLEIYAASSLQSGVPSRFSGSGSGTDFTLTISSLQPEDFATYYCQQSPSAFPEYTFGQGTKLEIK | binds | –
7 | CB6-40 (轻链突变库克隆) (Fab, V domains shown, also called CB6-40-VL; CB6-40-LC) VH: EVQLVESGGGLVQPGGSLRLSCAASGFTVSSNYMSWVRQAPGKGLEWVSVIYSGGSTFYADSVKGRFTISRDNSMNTLFLQMNSLRAEDTAVYYCARVLPMYGDYLDYWGQGTLVTVSS VL: DIVMTQSPSSLSASVGDRVTITCRASQKISQYLNWYQQKPGKAPKLLIYAASSLQSGVPSRFSGSGSGTDFTLTISSLQPEDFATYYCQQSTSFMPEYTFGQGTKLEIK | binds | –
